In patent US20250108122A1 (SHANGHAI MABGEN BIOTECH, published 2025):

T1: human CD79b protein on DoHH2 and WSU-DLCL2 cells (human, UniProt P40259 29-229)
T1 sequence (looked up): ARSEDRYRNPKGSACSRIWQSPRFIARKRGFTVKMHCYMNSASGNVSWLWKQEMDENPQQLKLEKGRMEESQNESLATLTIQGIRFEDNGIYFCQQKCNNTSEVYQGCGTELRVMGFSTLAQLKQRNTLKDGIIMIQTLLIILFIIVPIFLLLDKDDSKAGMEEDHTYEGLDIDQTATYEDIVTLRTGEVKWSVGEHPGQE

T2: human CD79b protein (human, UniProt P40259 29-159, limits assumed)
T2 construct: Recombinant protein used in the Biacore assay
T2 sequence (looked up): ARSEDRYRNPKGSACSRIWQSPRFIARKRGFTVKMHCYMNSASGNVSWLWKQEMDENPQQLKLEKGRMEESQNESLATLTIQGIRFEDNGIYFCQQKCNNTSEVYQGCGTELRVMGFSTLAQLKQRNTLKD


Assays:
[1] = target: T1, human CD79b protein on DoHH2 and …; test: cell-based or functional assay
human CD79b protein = target: T2, human CD79b protein; test: Biacore affinity assay, 1:1 Langmuir fit; column head prints EC50 (nM)
Protocol: Data fitting was performed with a (1:1) Langmuir model using BIAevaluation version 4.1, GE software to obtain affinity values.

| IC50 of in vitro proliferation inhibition (MTT, 72 h), DoHH2 cells [1] | IC50 of in vitro proliferation inhibition (MTT, 72 h), WSU-DLCL2 cells [1] | KD (binding affinity) (human CD79b protein) | Binder |
| --- | --- | --- | --- |
| 0.0806 µg/mL | 0.117 µg/mL | – | ADC-8 (SN8-cys-MC-PAB-MMAE, with a DAR value of about 4) (antibody, human IgG1, kappa, V domains shown, MC-VC-PAB-MMAE coupled to cysteines after TCEP reduction; positions not given; mean n=3.59 per antibody (CE-SDS)) VH: EVQLVESGGGLVQPGGSLRLSCAASGYTFSSYWIEWVRQAPGKGLEWIGEILPGGGDTNYNEIFKGRATFSADTSKNTAYLQMNSLRAEDTAVYYCTRRVPIRLDYWGQGTLVTVSS VL: DIQLTQSPSSLSASVGDRVTITCKASQSVDYEGDSFLNWYQQKPGKAPKLLIYAASNLESGVPSRFSGSGSGTDFTLTISSLQPEDFATYYCQQSNEDPLTFGQGTKVEIKR |
| 0.0033 µg/mL | 0.0542 µg/mL | – | ADC-6 (hAb015-10-cys-D, with a DAR value of about 4) (antibody, human IgG1, kappa, V domains shown, compound D (exatecan derivative linker-drug, Topo I inhibitor) coupled to cysteines after TCEP reduction; positions not given; mean n=3.46 per antibody (RP-HPLC)) VH: EVQLVQSGAEVKKPGSSVKVSCKASGSSFSSYGINWVKQAPGQGLEWIGEIFPRSGNTYYNEKFEGRATLTADKSTSTAYMELRSLRSEDTAVYYCAKGDLGDFDYWGQGTTVTVSS VL: DFVMTQTPLSLPVTPGEPASISCRSSQSIVHSDGNTYFEWYLQKPGQSPKLLIYKVSNRFSGVPDRFSGSGSGTDFTLKISRVEAEDVGVYYCFQGSHVPWTFGGGTKVEIKR |
| 0.0033 µg/mL | 0.0059 µg/mL | – | ADC-3 (hAb015-10-cys-MC-vc-PAB-MMAE) (antibody, human IgG1, kappa, V domains shown, MC-vc-PAB-MMAE coupled to cysteines after TCEP reduction; positions not given; mean n=3.09 per antibody (CE-SDS)) VH: EVQLVQSGAEVKKPGSSVKVSCKASGSSFSSYGINWVKQAPGQGLEWIGEIFPRSGNTYYNEKFEGRATLTADKSTSTAYMELRSLRSEDTAVYYCAKGDLGDFDYWGQGTTVTVSS VL: DFVMTQTPLSLPVTPGEPASISCRSSQSIVHSDGNTYFEWYLQKPGQSPKLLIYKVSNRFSGVPDRFSGSGSGTDFTLKISRVEAEDVGVYYCFQGSHVPWTFGGGTKVEIKR |
| 0.0085 µg/mL | 0.0683 µg/mL | – | ADC-5 (HAB015-10-cys-D, with a DAR value of about 2) (antibody, human IgG1, kappa, V domains shown, compound D (exatecan derivative linker-drug, Topo I inhibitor) coupled to cysteines after TCEP reduction; positions not given; mean n=1.81 per antibody (RP-HPLC), Antibody-drug conjugate of hAb015-10 with compound D) VH: EVQLVQSGAEVKKPGSSVKVSCKASGSSFSSYGINWVKQAPGQGLEWIGEIFPRSGNTYYNEKFEGRATLTADKSTSTAYMELRSLRSEDTAVYYCAKGDLGDFDYWGQGTTVTVSS VL: DFVMTQTPLSLPVTPGEPASISCRSSQSIVHSDGNTYFEWYLQKPGQSPKLLIYKVSNRFSGVPDRFSGSGSGTDFTLKISRVEAEDVGVYYCFQGSHVPWTFGGGTKVEIKR |
| 0.002 µg/mL | 0.0534 µg/mL | – | ADC-7 (hAb015-10-cys-D, with a DAR value of about 6) (antibody, human IgG1, kappa, V domains shown, compound D (exatecan derivative linker-drug, Topo I inhibitor) coupled to cysteines after TCEP reduction; positions not given; mean n=5.84 per antibody (RP-HPLC)) VH: EVQLVQSGAEVKKPGSSVKVSCKASGSSFSSYGINWVKQAPGQGLEWIGEIFPRSGNTYYNEKFEGRATLTADKSTSTAYMELRSLRSEDTAVYYCAKGDLGDFDYWGQGTTVTVSS VL: DFVMTQTPLSLPVTPGEPASISCRSSQSIVHSDGNTYFEWYLQKPGQSPKLLIYKVSNRFSGVPDRFSGSGSGTDFTLKISRVEAEDVGVYYCFQGSHVPWTFGGGTKVEIKR |
| – | – | 0.38 nM | hAb015-10 (antibody, human IgG1, kappa, V domains shown, Humanized form of the mouse hybridoma antibody mAb015; also called humanized anti-CD79b antibody hAb015-10; naked antibody) VH: EVQLVQSGAEVKKPGSSVKVSCKASGSSFSSYGINWVKQAPGQGLEWIGEIFPRSGNTYYNEKFEGRATLTADKSTSTAYMELRSLRSEDTAVYYCAKGDLGDFDYWGQGTTVTVSS VL: DFVMTQTPLSLPVTPGEPASISCRSSQSIVHSDGNTYFEWYLQKPGQSPKLLIYKVSNRFSGVPDRFSGSGSGTDFTLKISRVEAEDVGVYYCFQGSHVPWTFGGGTKVEIKR |
